This note sets out measurements from patent US20240400720A1 (NOVIMMUNE S A, published 2024).

One assay has as its target T1, human CD19 (human, UniProt P15391 20-291, limits assumed).
T1 construct: also called hCD19
T1 sequence (looked up): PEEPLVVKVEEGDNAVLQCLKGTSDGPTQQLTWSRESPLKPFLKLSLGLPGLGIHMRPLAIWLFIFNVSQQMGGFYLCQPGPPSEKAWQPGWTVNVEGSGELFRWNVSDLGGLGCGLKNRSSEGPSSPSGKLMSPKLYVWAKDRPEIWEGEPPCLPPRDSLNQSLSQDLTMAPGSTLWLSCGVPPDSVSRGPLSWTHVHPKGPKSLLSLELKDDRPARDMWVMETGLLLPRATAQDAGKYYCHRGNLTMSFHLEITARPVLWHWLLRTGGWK
The experiment in a line: second round of affinity maturation (from D11).

Assay [1] addresses T2, human CD47 (human, UniProt Q08722 19-141, limits assumed).
T2 construct: also called hCD47
The experiment in a line: screening of Examples 3 to 6.

Assay [2] concerns the target T3, human CD47 on the cell surface (human, UniProt Q08722 19-323).
T3 construct: whole, on cells; also called huCD47; native CD47
The assay can be described thus: CD47-SIRPα competitive binding assay: His-tagged soluble human SIRPα (200 ng/ml) on hCD47-transfected CHO cells, antibody 3.3 pM-330 nM; blocked ligand SIRPα.

In assay [3] the target is T2, human CD47. The experiment in a line: affinity maturation by phage display on hCD47; positive in hCD47-SIRPα inhibition screen, reformatted as IgG.
Assay [4] concerns the target T2, human CD47. The experiment in a line: CD47/SIRPα binding assay, inhibition of SIRPα binding to CD47; format not stated for this figure.
The target in assay [5] is T2, human CD47. The assay can be described thus: surface plasmon resonance. (SPR reads the build-up and loss of mass on a sensor chip optically.)
The target of assay [6] is T3, human CD47 on the cell surface. The experiment in a line: FACS on DS-1 cells (CD19-negative, CD47-positive), human IgG1 format, 0.01-10 µg/ml. On the procedure:
(§1) The graphs in FIGS. 9A-9C present FACS profiles generated with monovalent and bispecific antibodies binding to CD19-negative B-NHL cells (DS-1) and CD19-positive Burkitt lymphoma cells (Raji). All antibodies were human IgG1 format and were tested at four concentrations as indicated.
(§2) Two types of cells were used, a CD19-positive Burkitt lymphoma cell line Raji (expressing about 65,000 CD47 molecules per cell) and the CD19-negative B-NHL cell line DS-1 (expressing about 150,000 CD47 molecules per cell) as a control.

Another assay concerns the target T4, human CD19 on Raji cells (human, UniProt P15391 20-556).
T4 construct: whole, on cells; also called native form of hCD19
T4 sequence (looked up): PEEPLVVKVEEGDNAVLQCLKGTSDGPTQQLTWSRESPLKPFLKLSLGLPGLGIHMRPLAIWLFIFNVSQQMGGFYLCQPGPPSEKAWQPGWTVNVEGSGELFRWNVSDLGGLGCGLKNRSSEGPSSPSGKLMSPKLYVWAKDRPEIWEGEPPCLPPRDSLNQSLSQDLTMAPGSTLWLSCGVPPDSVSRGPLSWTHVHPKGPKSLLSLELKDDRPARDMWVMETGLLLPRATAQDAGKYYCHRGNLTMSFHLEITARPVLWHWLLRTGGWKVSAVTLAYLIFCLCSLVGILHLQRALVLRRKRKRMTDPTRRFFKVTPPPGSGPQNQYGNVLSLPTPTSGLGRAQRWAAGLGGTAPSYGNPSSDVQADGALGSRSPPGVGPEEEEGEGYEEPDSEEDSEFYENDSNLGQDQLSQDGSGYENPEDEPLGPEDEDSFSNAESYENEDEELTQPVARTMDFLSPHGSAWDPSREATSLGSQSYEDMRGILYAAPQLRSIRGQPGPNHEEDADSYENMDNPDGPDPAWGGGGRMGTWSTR
The assay can be described thus: FACS on Raji cells (CD19-positive, CD47-positive), human IgG1 format, 0.01-10 µg/ml; both targets are on the cells, the filing ascribes the binding to co-engagement driven mainly by the CD19 arm. As to the method: as §1, §2

B1: C9 antibody (antibody, human IgG1, lambda, V domains shown)
VH: not shown
VL: NFMLTQPHSVSESPGKTVTISCTRSSGSIADKYVQWYQQRPGSSPTIVIYYDNERPSGVPDRFSGSIDSSSNSASLTISGLKTEDEADYYCQTYDESLYGWVFGGGTKLTVLG
notes: anti-CD19, IgG, lambda; also called L7B7_C9
As for B1, the binding result with human CD19 is recorded as “binds”.

B2: A6 antibody (antibody, human IgG1, lambda, V domains shown)
VH: not shown
VL: NFMLTQPHSVSESPGKTVTISCTRSSGSIGDKYVQWYQQRPGSSPTIVIYYDNERPSGVPDRFSGSIDSSSNSASLTISGLKTEDEADYYCQTYDESLYGWVFGGGTKLTVLG
notes: anti-CD19, IgG, lambda; also called L7B7_A6
For the molecule B2, the binding result with human CD19 is “binds”.

B3: B11 antibody (antibody, human IgG1, lambda, V domains shown)
VH: not shown
VL: NFMLTQPHSVSESPGKTVTISCTRSSGSIEDKYVQWYQQRPGSSPTIVIYYDNERPSGVPDRFSGSIDSSSNSASLTISGLKTEDEADYYCQTYDNSLYGWVFGGGTKLTVLG
notes: anti-CD19, IgG, lambda; also called L7B7_B11
For the molecule B3, the binding result in the assay with human CD19 is on record as “binds”.

B4: C6 antibody (antibody, human IgG1, lambda, V domains shown)
VH: not shown
VL: NFMLTQPHSVSESPGKTVTISCTRSSGSINDKYVQWYQQRPGSSPTIVIYFDNERPSGVPDRFSGSIDSSSNSASLTISGLKTEDEADYYCQTYDTSLYGWVFGGGTKLTVLG
notes: anti-CD19, IgG, lambda; also called L7B7 C6
Take B4: in the assay with human CD19, the binding result is “binds”.

B5: Kc4 antibody (antibody, human IgG1, lambda, V domains shown)
VH: not shown
VL: QSALTQPASVSGSPGQSITISCTGTSSDVGGYNYVSWYQQHPGKAPKLMIYEVSNRPSGVSNRFSGSKSGNTASLTISGLQAEDEADYYCSSYDWWFRPKVFGGGTKLTVLG
notes: IgG, lambda (IGVL2-14)
For the molecule B5, the binding result (with human CD47 [1]; in assay [2]) was “binds” throughout.

B6: Kc4B1 antibody (antibody, human IgG1, lambda, V domains shown)
VH: not shown
VL: QSALTQPASVSGSPGQSITISCTGTSSDVRANNYVSWYQQHPGKAPKLMIYESSARPSGVSNRFSGSKSGNTASLTISGLQAEDEADYYCSSYDWWFRPKVFGGGTKLTVLG
notes: IgG, lambda
Consider B6, for which the binding result (in assay [2]; in the assay with human CD47 [3]) was “binds” in each case.

B7: Kc4G11 antibody (antibody, human IgG1, lambda, V domains shown)
VH: not shown
VL: QSALTQPASVSGSPGQSITISCTGTSSDVGKANYVSWYQQHPGKAPKLMIYKDSDRPSGVSNRFSGSKSGNTASLTISGLQAEDEADYYCSSYDWWFRPKVFGGGTKLTVLG
notes: IgG, lambda
Take B7: the binding result (in assay [2]; in the assay with human CD47 [3]) was “binds” in each case.

B8: Kc4G9 antibody (antibody, human IgG1, lambda, V domains shown)
VH: not shown
VL: QSALTQPASVSGSPGQSITISCTGTSSDVERKNYVSWYQQHPGKAPKLMIYKNSTRPSGVSNRFSGSKSGNTASLTISGLQAEDEADYYCSSYDWWFRPKVFGGGTKLTVLG
notes: IgG, lambda
Turning to B8, the binding result (in assay [2]; with human CD47 [3]) was “binds” each time.

B9: Kc4F4 antibody (antibody, human IgG1, lambda, V domains shown)
VH: not shown
VL: QSALTQPASVSGSPGQSITISCTGTSSDVRRANYVSWYQQHPGKAPKLMIYQDSSRPSGVSNRFSGSKSGNTASLTISGLQAEDEADYYCSSYDWWFRPKVFGGGTKLTVLG
notes: IgG, lambda
For B9, the binding result (in assay [2]; in the assay with human CD47 [3]) was “binds” each time.

B10: Kc4E10 antibody (antibody, human IgG1, lambda, V domains shown)
VH: not shown
VL: QSALTQPASVSGSPGQSITISCTGTSSDVNSANYVSWYQQHPGKAPKLMIYKSSSRPSGVSNRFSGSKSGNTASLTISGLQAEDEADYYCSSYDWWFRPKVFGGGTKLTVLG
notes: IgG, lambda
As to B10, the binding result (in assay [2]; with human CD47 [3]) was “binds” each time.

B11: Kc4E2 antibody (antibody, human IgG1, lambda, V domains shown)
VH: not shown
VL: QSALTQPASVSGSPGQSITISCTGTSSDVYYNKYVSWYQQHPGKAPKLMIYESSKRPSGVSNRFSGSKSGNTASLTISGLQAEDEADYYCSSYDWWFRPKVFGGGTKLTVLG
notes: IgG, lambda; also called KC4-P2E2
Take B11: the binding result (in assay [2]; with human CD47 [3]) was “binds” in each case.

B12: Kc4C11 antibody (antibody, human IgG1, lambda, V domains shown)
VH: not shown
VL: QSALTQPASVSGSPGQSITISCTGTSSDVRGNNYVSWYQQHPGKAPKLMIYENSKRPSGVSNRFSGSKSGNTASLTISGLQAEDEADYYCSSYDWWFRPKVFGGGTKLTVLG
notes: IgG, lambda
In the case of B12, the binding result (in assay [2]; with human CD47 [3]) was “binds” throughout.

B13: 5A3 antibody (antibody, human IgG1, kappa, V domains shown)
VH: not shown
VL: DIQMTQSPSSLSASVGDRVTITCQASQDINKYLNWYQQKPGKAPKLLIYGASRLETGVPSRFSGSGSGTDFTFTISSLQPEDIATYYCQQKHPRGPRTFGQGTKVEIKR
notes: IgG, common heavy chain, kappa light chain
Broadly, the Kd is the free concentration of one partner at which half of the binding sites on the other are occupied at equilibrium, for simple one-to-one binding. Lower therefore signals tighter binding. Consider B13, for which, in the assay with human CD47 [4], the “IC50 (read off the curve)” value was roughly 0.08 nM. The same molecule registered a Kd with human CD47 [5] of roughly 23.6 nM.

B14: 5A3-M5 antibody (antibody, human IgG1, kappa, V domains shown)
VH: not shown
VL: DIQMTQSPSSLSASVGDRVTITCQASQDINKYLNWYQQKPGKAPKLLIYGASRLETGVPSRFSGSGSGTDFTFTISSLQPEDIATYYCQQKHPRYPRTFGQGTKVEIKR
notes: IgG, variant of 5A3 with changed VL
For the molecule B14, in the assay with human CD47 [4], the “IC50 (read off the curve)” value is roughly 3 nM. Moreover, the Kd in the assay with human CD47 [5] is roughly 2840 nM.

B15: Ka3 antibody (antibody, human IgG1, kappa, V domains shown)
VH: not shown
VL: DIQMTQSPSSLSASVGDRVTITCRASQSISSYLNWYQQKPGKAPKLLIYAASSLQSGVPSRFSGSGSGTDFTLTISSLQPEDFATYYCQQMHPRAPKTFGQGTKVEIKR
notes: IgG, kappa (IGVK1-39)
As to B15, the binding result (with human CD47 [1]; in assay [2]) was “binds” each time.

B16: 5A3M5xC2 (bispecific antibody, human IgG1, kappa, lambda)
common heavy chain: not shown
kappa light chain (5A3-M5, anti-CD47): not shown
lambda light chain (C2, anti-CD19): NFMLTQPHSVSESPGKTVTISCTRSSGSIEDKYVQWYQQRPGSSPTIVIYYDNERPSGVPDRFSGSIDSSSNSASLTISGLKTEDEADYYCQTYDQSLYGWVFGGGTKLTVLGQPKAAPSVTLFPPSSEELQANKATLVCLISDFYPGAVTVAWKADSSPVKAGVETTTPSKQSNNKYAASSYLSLTPEQWKSHRSYSCQVTHEGSTVEKTVAPTECS
notes: also called CD47xCD19 BsAb 5A3M5xC2; bispecific antibody 5A3-M5×C2
In the case of B16, the binding result (in assay [6]; with human CD19 on Raji cells) was “binds” throughout.

B17: Ke8G11xC2 (bispecific antibody, human IgG1, kappa, lambda)
common heavy chain: not shown
kappa light chain (Ke8G11, anti-CD47): DIQMTQSPSSLSASVGDRVTITCRASQSIGRYLNWYQQKPGKAPKLLIYAASSLQSGVPSRFSGSGSGTDFTLTISSLQPEDFATYYCQQMHPRGPKTFGQGTKVEIKRTVAAPSVFIFPPSDEQLKSGTASVVCLLNNFYPREAKVQWKVDNALQSGNSQESVTEQDSKDSTYSLSSTLTLSKADYEKHKVYACEVTHQGLSSPVTKSFNRGEC
lambda light chain (C2, anti-CD19): NFMLTQPHSVSESPGKTVTISCTRSSGSIEDKYVQWYQQRPGSSPTIVIYYDNERPSGVPDRFSGSIDSSSNSASLTISGLKTEDEADYYCQTYDQSLYGWVFGGGTKLTVLGQPKAAPSVTLFPPSSEELQANKATLVCLISDFYPGAVTVAWKADSSPVKAGVETTTPSKQSNNKYAASSYLSLTPEQWKSHRSYSCQVTHEGSTVEKTVAPTECS
notes: also called CD47xCD19 BsAb Ke8G11xC2; bispecific antibody Ke8G11×C2
As to B17, the binding result with human CD19 on Raji cells was “binds”.

B18: Ka3xC2 (bispecific antibody, human IgG1, kappa, lambda)
common heavy chain: not shown
kappa light chain (Ka3, anti-CD47): not shown
lambda light chain (C2, anti-CD19): NFMLTQPHSVSESPGKTVTISCTRSSGSIEDKYVQWYQQRPGSSPTIVIYYDNERPSGVPDRFSGSIDSSSNSASLTISGLKTEDEADYYCQTYDQSLYGWVFGGGTKLTVLGQPKAAPSVTLFPPSSEELQANKATLVCLISDFYPGAVTVAWKADSSPVKAGVETTTPSKQSNNKYAASSYLSLTPEQWKSHRSYSCQVTHEGSTVEKTVAPTECS
notes: m75 has the same CD47 arm but no named CD19 arm; also called CD47xCD19 BsAb Ka3xC2; bispecific antibody Ka3×C2
As for B18, the binding result (in assay [6]; in the assay with human CD19 on Raji cells) was “binds” in each case.
